Numbering of substitutions follows the chain as printed. No end group written: not given here. *: point of attachment. Biotin = O=C1N[C@H]2[C@H](CS[C@H]2CCCCC(=O)*)N1; C6spacer = C6 spacer
B1: Monoclonal antibody P2-R4-G08 (antibody, human IgG1, kappa, V domains shown)
VH: EVQLVESGGSLVKPGGSLRLSCAASGFTFSNYGMNWVRQAPGKGLEWISGISGSSRSIGYADFVKGRFTISRDNAKNSLYLQMNSLRAEDTAVYYCVRSSYYYGMDVWGRGTLVTVSS
VL: QSVLTQPASVSGSPGQSITISCAGTSSDVGGYGQVSWYQQHPGKAPKLMIYSDSSRPSGVSNRFSGSKSGNTASLTISGLQAEDEADYYCSSYTSYSTRVFGGGTKLEIKR
notes: scFv from phage display subcloned into Human IgG1 format, expressed in HEK293T; also called P2-R4-G8
B2: Monoclonal antibody P3-R5-E06 (antibody, human IgG1, kappa, V domains shown)
VH: EVQLVESGGSLVKPGGSLRLSCAASGFTFSNAYMNWVRQAPGKGLEWISSISGSSSYIGYADFVKGRFTISRDNAKNSLYLQMNSLRAEDTAVYYCVRSSYYNYDYGDAMDVWGRGTLVTVSS
VL: B1 VL with Y32N, G33Y, Q34Y, S52Q, S55N, S95G
notes: scFv from phage display subcloned into Human IgG1 format, expressed in HEK293T; also called P3-R5-E6
B3: Monoclonal antibody P3-R4-E11 (antibody, human IgG1, kappa, V domains shown)
VH: EVQLVESGGSLVKPGGSLRLSCAASGFTFSNSGMNWVRQAPGKGLEWISGISGSSRYIGYADFVKGRFTISRDNAKNSLYLQMNSLRAEDTAVYYCVRSNYGGMDVWGRGTLVTVSS
VL: B1 VL with Q34Y, S52Y, S55Y, Y96Q
notes: scFv from phage display subcloned into Human IgG1 format, expressed in HEK293T
B4: Monoclonal antibody P3-R5-H03 (antibody, human IgG1, kappa, V domains shown)
VH: B1 VH with Y32A, G50Y, S57Y, G59N, Y101S, Y102S
VL: B1 VL with Y32G, G33Y, Q34Y, S52G, S55N, Y93N, S95Y
notes: scFv from phage display subcloned into Human IgG1 format, expressed in HEK293T; also called P3-R5-H3
B5: Monoclonal antibody P3-R4-F03 (antibody, human IgG1, kappa, V domains shown)
VH: EVQLVESGGSLVKPGGSLRLSCAASGFTFSNNYMNWVRQAPGKGLEWISSIGGSSRDIYYADFVKGRFTISRDNAKNSLYLQMNSLRAEDTAVYYCVRSNSGMDVWGRGTLVTVSS
VL: B1 VL with Y32S, G33Y, Q34S, S52Y, S55Y, Y93N, S95Q, Y96S
notes: scFv from phage display subcloned into Human IgG1 format, expressed in HEK293T; also called P3-R4-F3
B6: Mouse monoclonal anti-TRPV6 antibody 82 (mAb82) (antibody, mouse IgG2a, kappa, V domains shown)
VH: EVKLLESGGGLVQPGGSLKLSCAASGFDFRRYWMSWVRQAPGKGLEWIGEINPDSSTINYTPSLKDKFIISRDNAKNTLYLQMSKVRSEDTALYYCARSASSHYFDYWGQGTTLTVSS
VL: DIVMSQSPSSLAVSVGEKVTMSCKSSQSLLYSSNQKNYLAWYQQKPGQSPKLLIYWASTRESGVPDRFTGSGSGTDFTLTISSVKAEDLAVYYCQQYYRYPTFGGGTKLEIKR
notes: also called mab82a; No. 82a

Legend:
[1] = biological target: T1, Peptide 2 (Pore Forming 1) TEDPEELGHFYDYPMAK-[biot] (human); test: dose-response ELISA, biotinylated peptide on streptavidin plate, IgG 0.00282 to 500 nM, anti-Fab-HRP
T1 construct: Synthetic biotinylated peptide immobilized at 10 µg/mL on streptavidin plates; also called P2
T1 peptide: TEDPEELGHFYDYPMAK-biotin
Procedure: (§1) TRPV6 biotinylated peptides were immobilized at 10 μg/mL on a streptavidin coated plate. IgGs binding was tested at different concentrations (from 0.00282 to 500 nM) and detected using an anti-Fab-HRP (Sigma A0293).
(§2) IgGs binding to Human TRPV6 peptides was tested by ELISA. TRPV6 biotinylated peptides were immobilized at 10 μg/mL on a streptavidin coated plate. IgGs binding was tested at different concentrations (from 0.00282 to 500 nM) and detected using an anti-Fab-HRP (Sigma A0293).

[2] = biological target: T2, Peptide 3 (Pore Forming 2) [biot]-[C6spacer]-DGPANYNVDLPFMYS (human); test: as above
T2 construct: Synthetic biotinylated peptide immobilized at 10 µg/mL on streptavidin plates; also called P3
T2 peptide: {Biotin-C6spacer}-DGPANYNVDLPFMYS
Procedure: as §1, §2

[3] = biological target: T3, Human Transient Receptor Potential Vanilloid 6 (TRPV6) channel protein (human, UniProt Q9H1D0 1-765, glycosylated/mature form (band around 95-100 kDa); N-glycosylation site at position 397); test: immunoblotting of LNCaP whole cell lysates, denaturing conditions
T3 construct: Endogenous or vector-expressed TRPV6 of human cell lines (LNCaP, PC3M luc C6, transfected HEK); On live cells in flow cytometry and the functional assays; in whole cell lysates under denaturing conditions (monomer) in the immunoblots; also called hTRPV6
T3 sequence: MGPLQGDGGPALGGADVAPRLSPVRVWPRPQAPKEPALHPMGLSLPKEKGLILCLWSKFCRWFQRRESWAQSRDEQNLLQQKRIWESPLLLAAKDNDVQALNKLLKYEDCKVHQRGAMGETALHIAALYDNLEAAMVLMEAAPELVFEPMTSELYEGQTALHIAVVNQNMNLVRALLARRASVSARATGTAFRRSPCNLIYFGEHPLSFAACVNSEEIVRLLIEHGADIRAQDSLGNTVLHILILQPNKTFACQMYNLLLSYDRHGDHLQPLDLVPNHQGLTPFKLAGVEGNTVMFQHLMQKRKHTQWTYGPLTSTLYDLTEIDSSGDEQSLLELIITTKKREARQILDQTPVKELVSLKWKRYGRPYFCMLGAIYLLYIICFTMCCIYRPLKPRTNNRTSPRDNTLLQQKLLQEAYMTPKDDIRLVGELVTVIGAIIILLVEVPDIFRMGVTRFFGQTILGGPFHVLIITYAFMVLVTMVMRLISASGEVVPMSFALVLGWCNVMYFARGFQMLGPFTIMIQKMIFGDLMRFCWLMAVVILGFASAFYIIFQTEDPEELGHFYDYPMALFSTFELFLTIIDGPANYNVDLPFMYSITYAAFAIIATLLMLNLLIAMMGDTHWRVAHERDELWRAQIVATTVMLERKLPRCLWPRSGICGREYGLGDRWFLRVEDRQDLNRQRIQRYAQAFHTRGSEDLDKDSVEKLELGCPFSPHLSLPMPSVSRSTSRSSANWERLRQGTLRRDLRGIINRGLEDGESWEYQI

Binder	EC50 [2]	other results
B1		EC50 [1]: 0.49 nM
B2	0.98 nM	
B3	0.9 nM	
B4	0.36 nM	
B5	0.86 nM	
B6		binding result [3]: binds

Reference: US20250236666A1 (UNIVERSITE DE LILLE, published 2025)
